Substitutions are numbered along the chain they refer to. Read-outs that look alike come from different tables or passages of the source.

Assay [1] has as its target T1, CD3E&D protein (UniProt P04234 22-105).
T1 construct: Purchased from Acro; also called CD3 E&D antigens; CD3E&D antigen protein
As to the kind of experiment: ELISA, coated CD3E&D protein, OD450 [panel A]. As for the experimental part:
(§1) In this example, the binding properties of the parental antibody Cross3 and the CD3 affinity-reduced antibody (the production method and the amino acid sequences of the heavy and light chains were shown in Example 1) were detected by ELISA. The CD3E&D protein was coated onto a 96-well plate by the inventors, and the strength of the signal after the addition of the antibody was used to determine the binding properties of the antibody and CD3E&D.
(§2) CD3E&D protein (purchased from Acro) was diluted to 2 μg/ml with PBS buffer, added to a 96-well plate at a volume of 100 μL/well, and placed at 4° C. overnight. The PBS buffer in the 96-well plate was aspirated, and the plate was washed 6 times with PBST (pH 7.2 PBS containing 0.1% Tween 20) buffer. Then, 200 μL/well PBS/10% BSA was added and incubated at 37° C. for 2 h for blocking. The blocking solution was removed, and the plate was washed six times with PBST. Then, the to-be-tested antibodies serially diluted with PBST/0.05% BSA, Cross3, Cross303, Cross307, Cross308, Cross309, Cross310, Cross311, Cross312, Cross313, Cross314, Cross316, Cross317, Cross318, Cross323, Cross325, Cross326, and control IgG1 (purchased from Bio-Tech) were added at 100 μL/well, and incubated at 37° C. for 1 h. The reaction system was removed, and the plate was washed 6 times with PBST. Then, the cells were incubated at 37° C. for 1 h with HRP (horseradish peroxidase)-labeled anti-human secondary antibody (Fab specific) (purchased from Sigma) serially diluted with PBST/0.05% BSA at 100 μL/well. The plate was washed six times with PBST, TMB (tetramethylbenzidine) was added at 80 μL/well and incubated at room temperature for 3 min. 4 M sulfuric acid was added at 80 μL/well to terminate the reaction. The absorbance was read at 450 nm using a microplate reader.

Assay [2] concerns the target T1, CD3E&D protein. In words: SPR (Biacore 8K), antibody on CM5 chip, CD3 E&D antigen as analyte. Also noted: Fold change: reference not given here. As for the experimental part:
In a Biacore 8K (Cytiva) system, the antibody was diluted to 10 μg/mL in HBS-EP running buffer and coupled to a CM5 chip (Cytiva) at a flow rate of 10 μL/min.

In assay [3] the target is T1, CD3E&D protein. In words: ELISA, coated CD3E&D protein, OD450 [panel C]. As for the experimental part:
as §1, §2

In assay [4] the target is T2, CD3 on CD8 T cells (Homo sapiens (Human), UniProt P07766 23-207).
T2 construct: Native CD3 complex on CD8 T cells among PBMCs; also called T cells (PBMCs gated with anti-human CD8 antibody)
T2 sequence (P07766 23-207 limits assumed): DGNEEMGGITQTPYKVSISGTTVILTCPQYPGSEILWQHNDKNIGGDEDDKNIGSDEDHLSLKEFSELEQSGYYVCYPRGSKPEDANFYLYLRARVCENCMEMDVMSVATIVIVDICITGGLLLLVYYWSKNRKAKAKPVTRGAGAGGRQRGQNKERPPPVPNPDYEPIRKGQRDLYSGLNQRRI
As to the kind of experiment: flow cytometry, CD8 T cells in PBMCs, binding ratio % [panel A]. As to the method: PBMCs were diluted with PBS to 2×10⁶/mL and added to a 1.5 ml EP tube at a volume of 100 μL/tube, 10 μL/tube of goat serum was added thereto and incubated at 4° C. for 30 min for blocking. […] 1 mL of PBS was added to the EP tube, followed by centrifugation at 3500 rpm for 5 min at 4° C. The supernatant was discarded, and the cells were washed again with PBS. After centrifugation, the supernatant was discarded, and the cells were resuspended with 100 μl/tube PBS. 1 μl/tube Alexa-647-labeled goat anti-human secondary antibody (purchased from Jackson lab) and 0.5 μl/tube PerCP-Cy5.5-labeled anti-human CD8 antibody were added and incubated at 4° C. in the dark for 30 min. The cells were washed twice with PBS, and the supernatant was discarded after centrifugation. The cells were resuspended with […] of PBS and assayed using the flow cytometry.

In assay [5] the target is T2, CD3 on CD8 T cells. The assay is described as above. As to the method: (1) PBMCs were diluted to 2×10⁶/ml with PBS and added to a 1.5 ml EP tube at 100 μl/tube, goat serum was added thereto at 10 μl/tube. The cells were blocked at 4° C. for 30 min. The serially diluted bispecific antibodies, Cross3×Trop2, Cross303×Trop2, Cross307×Trop2, Cross308×Trop2, Cross309×Trop2, Cross310×Trop2, Cross311×Trop2, Cross312×Trop2, Cross313×Trop2, Cross314×Trop2, Cross316×Trop2, Cross317×Trop2, Cross318×Trop2, Cross323×Trop2, Cross325×Trop2, Cross326×Trop2, Cross3×PDL1, Cross313×PDL1, Cross316×PDL1, Cross325×PDL1, and control hIgG1LALA (purchased from Bio-Tech) were added and incubated at 4° C. for 30 min. 1 ml of PBS was added to the EP tube, followed by centrifugation at 3500 rpm for 5 min at 4° C. The supernatant was discarded, and the system was washed again with PBS. After centrifugation, the supernatant was discarded, and the cells were resuspended with PBS at 100 μl/tube. 1 μl/tube Alexa-647-labeled goat anti-human IgG secondary antibody (purchased from Jackson lab) and 0.5 μl/tube PerCP-Cy5.5-labeled anti-human CD8 antibody were added and incubated at 4° C. in the dark for 30 min. The cells were washed twice with PBS. After centrifugation, the supernatant was discarded. The cells were resuspended with 200 μl/tube of PBS and assay is performed by flow cytometry.
The source holds these as a separate data set.

In assay [6] the target is T3, PDL1 protein (UniProt Q9NZQ7 19-238).
T3 construct: Bought recombinant protein
T3 sequence (Q9NZQ7 19-238 limits assumed): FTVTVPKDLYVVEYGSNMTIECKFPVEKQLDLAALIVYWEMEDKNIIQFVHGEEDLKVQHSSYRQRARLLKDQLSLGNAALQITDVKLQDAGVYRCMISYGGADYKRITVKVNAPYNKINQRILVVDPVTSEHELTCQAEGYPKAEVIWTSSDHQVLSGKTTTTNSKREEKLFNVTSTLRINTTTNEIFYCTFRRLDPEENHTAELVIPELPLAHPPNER
In words: ELISA, coated PDL1 protein, OD450 [panel A]. The method in brief: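 PDL1 protein coated at 2 μg/ml overnight at 4 °C, blocked with PBS/10% BSA; serially diluted bispecific antibodies or control IgG1LALA bound 1 h at 37 °C. Detection with HRP anti-human Fab secondary antibody and TMB for 3 min, stopped with sulfuric acid, absorbance at 450 nm.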

In assay [7] the target is T4, PDL1 on A-375 melanoma cells, HCT-15 colorectal cancer cells and A549 lung cancer cells (UniProt Q9NZQ7 19-290, limits assumed).
T4 construct: whole, on cells
T4 sequence (Q9NZQ7 19-290 limits assumed): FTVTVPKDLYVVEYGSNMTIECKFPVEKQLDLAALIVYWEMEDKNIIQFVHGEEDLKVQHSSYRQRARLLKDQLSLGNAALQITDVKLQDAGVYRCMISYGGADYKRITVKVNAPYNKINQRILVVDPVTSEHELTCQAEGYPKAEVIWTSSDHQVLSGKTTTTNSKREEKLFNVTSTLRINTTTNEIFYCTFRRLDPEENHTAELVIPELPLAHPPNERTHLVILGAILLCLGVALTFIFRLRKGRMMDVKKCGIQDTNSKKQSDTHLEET
As to the kind of experiment: flow cytometry, A549 cells, MFI [panel B]. The method in brief: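 Cells were blocked with goat serum at 4° C for 30 min, then incubated with serially diluted bispecific antibodies or hIgG1LALA control at 4° C for 30 min. Bound antibody was detected with Alexa-647 anti-human IgG (4° C, 30 min, dark) and read by flow cytometry.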

Assay [8] deals with T3, PDL1 protein. In words: ELISA, coated PDL1 protein, OD450 [panel B]. As to the method: (3) PDL1 protein (purchased from Acro) was diluted to 2 μg/ml with PBS buffer, added to a 96-well plate at a volume of 100 μL/well, and placed at 4° C. overnight. The PBS buffer in the 96-well plate was aspirated, and the plate was washed 6 times with PBST (pH 7.2 PBS containing 0.10% Tween 20) buffer. Then, PBS/10% BSA was added at 200 μL/well and incubated at 37° C. for 2 h for blocking. The blocking solution was removed, and the plate was washed six times with PBST. Then, the to-be-tested bispecific antibodies serially diluted with PBST/0.05% BSA, Cross3×PDL1, Cross303×PDL1, Cross307×PDL1, Cross308×PDL1, Cross309×PDL1, Cross310×PDL1, Cross311×PDL1, Cross312×PDL1, Cross313×PDL1, Cross314×PDL1, Cross316×PDL1, Cross317×PDL1, Cross318×PDL1, Cross323×PDL1, Cross325×PDL1, Cross326×PDL1, and control IgG1LALA (purchased from Bio-Tech) were added at 100 μL/well, and incubated at 37° C. for 1 h. The reaction system was removed, and the plate was washed 6 times with PBST. Then, the cells were incubated at 37° C. for 1 h with HRP (horseradish peroxidase)-labeled anti-human secondary antibody (Fab specific) (purchased from Sigma) serially diluted with PBST/0.05% BSA at 100 μL/well. After the plate was washed six times with PBST, TMB (tetramethylbenzidine) was added at 80 μL/well and incubated at room temperature for 3 min. 4 M sulfuric acid was added at 80 μL/well to terminate the reaction. The absorbance was read at 450 nm using a microplate reader.

T1 sequence (chain, as listed by the source limits assumed, chain 1 of 2): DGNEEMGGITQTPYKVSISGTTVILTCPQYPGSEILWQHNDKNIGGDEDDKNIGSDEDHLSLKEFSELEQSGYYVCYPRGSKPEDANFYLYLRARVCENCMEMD
T1 sequence (P04234 22-105 limits assumed, chain 2 of 2): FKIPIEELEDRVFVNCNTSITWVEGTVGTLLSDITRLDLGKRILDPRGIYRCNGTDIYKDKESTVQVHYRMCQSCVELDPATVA

B1: Cross308 (antibody, human IgG1, kappa, V domains shown)
VH: EVQLLESGGGLVQPGGSLKLSCAASGFTFNTYAMNWVRQAPGKGLEWVARIRSKYNNYATYYADSVKDRFTISRDDSKNTAYLQMNNLKTEDTAVYYCVRHGNFGNPYVSWFAYWGQGTLVTVSS
VL: ELVVTQEPSLTVSPGGTVTLTCRSSTGAVTTSNYANWVQQKPGQAPRGLIGGTNKRAPGTPARFSGSLLGGKAALTLSGVQPEDEAEYYCALWYSNLWVFGGGTKLTVLR
B1: in the assay with CD3E&D protein [1], the concentration for a half-maximal effect (EC50 (read off the curve)) was around 0.03 µg/mL. In the assay with CD3E&D protein [2], this molecule registered a Fold change of 11.8, a dissociation constant Kd of 1.95 nM, a koff of 0.0209 s⁻¹ and an on-rate (kon) of 1.07e+07 M⁻¹ s⁻¹.

B2: Cross325 (antibody, human IgG1, kappa, V domains shown)
VH: B1 VH with P107S
VL: B1 VL with L97D
Turning to B2, the “EC50 (read off the curve)” value in the assay with CD3E&D protein [3] was around 0.03 µg/mL. In the assay with CD3E&D protein [2], this molecule displayed a Fold change of 15.6, a dissociation constant Kd of 2.57 nM, an off-rate (koff) of 0.00366 s⁻¹ and a kon of 1.42e+06 M⁻¹ s⁻¹. In addition, the “EC50 (read off the curve)” value with CD3 on CD8 T cells [4] is around 0.3 µg/mL.

B3: Cross309 (antibody, human IgG1, kappa, V domains shown)
VH: B1 VH with P107V
VL: B1 VL
For the molecule B3, in the assay with CD3E&D protein [1], the concentration for a half-maximal effect (EC50 (read off the curve)) is around 0.03 µg/mL. Moreover, in the assay with CD3E&D protein [2], the Fold change worked out at 11.1, binding was characterised by a dissociation constant (Kd) of 1.83 nM, the off-rate constant (koff) came out at 0.0124 s⁻¹ and the on-rate constant (kon) came to 6.76e+06 M⁻¹ s⁻¹. Further, the “EC50 (read off the curve)” value with CD3 on CD8 T cells [4] was around 0.4 µg/mL.

B4: Cross323 (antibody, human IgG1, kappa, V domains shown)
VH: B1 VH with P107S
VL: B1 VL with S95P
With B4, in the assay with CD3E&D protein [3], the concentration giving a half-maximal response (EC50 (read off the curve)) was around 0.03 µg/mL. Moreover, in the assay with CD3E&D protein [2], the Fold change stood at 19.9, the dissociation constant (Kd) turned out to be 3.28 nM, the koff worked out at 0.0094 s⁻¹ and the kon was found to be 2.86e+06 M⁻¹ s⁻¹. Further, the concentration for a half-maximal effect (EC50 (read off the curve)) in the assay with CD3 on CD8 T cells [4] was around 0.3 µg/mL.

B5: Cross310 (antibody, human IgG1, kappa, V domains shown)
VH: B1 VH with P107Y
VL: B1 VL
B5: in the assay with CD3E&D protein [1], the half-maximal effective concentration (EC50 (read off the curve)) was around 0.03 µg/mL. In the assay with CD3E&D protein [2], the Fold change is 16.8; the affinity, expressed as Kd, was 2.77 nM; the off-rate constant (koff) was found to be 0.00613 s⁻¹; the association rate constant (kon) turned out to be 2.22e+06 M⁻¹ s⁻¹. In addition, the concentration for a half-maximal effect (EC50 (read off the curve)) with CD3 on CD8 T cells [4] was around 0.3 µg/mL.

B6: Cross326 (antibody, human IgG1, kappa, V domains shown)
VH: B1 VH with P107S
VL: B1 VL with L97P
B6: in the assay with CD3E&D protein [3], the “EC50 (read off the curve)” value is around 0.03 µg/mL. In the assay with CD3E&D protein [2], this molecule had a Fold change of 16.5, an equilibrium dissociation constant (Kd) of 2.73 nM, an off-rate constant (koff) of 0.0386 s⁻¹ and an on-rate (kon) of 1.41e+07 M⁻¹ s⁻¹.

B7: Cross313×PDL1 (bispecific antibody, human IgG1, kappa, L234A L235A)
scFv: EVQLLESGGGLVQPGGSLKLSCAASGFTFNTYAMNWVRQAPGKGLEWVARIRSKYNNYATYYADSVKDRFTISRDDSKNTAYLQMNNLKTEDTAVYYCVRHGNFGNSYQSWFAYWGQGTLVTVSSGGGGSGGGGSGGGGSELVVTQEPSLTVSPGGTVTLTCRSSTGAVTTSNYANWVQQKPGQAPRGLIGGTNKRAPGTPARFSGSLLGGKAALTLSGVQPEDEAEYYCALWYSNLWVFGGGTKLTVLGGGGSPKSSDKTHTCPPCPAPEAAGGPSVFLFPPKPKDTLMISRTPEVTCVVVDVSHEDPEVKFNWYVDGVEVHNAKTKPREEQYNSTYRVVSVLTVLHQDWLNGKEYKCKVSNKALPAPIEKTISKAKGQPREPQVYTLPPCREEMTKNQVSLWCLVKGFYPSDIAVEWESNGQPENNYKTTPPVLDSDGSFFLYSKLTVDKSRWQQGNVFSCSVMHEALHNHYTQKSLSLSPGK
heavy: QVQLVQSGAEVKKPGASVKVSCKASGYSFTGYYMHWVRQAPGQGLEWIGRINPYNGATTYSQNFKDRATMTVDTSISTAYMELSRLRSDDTAVYYCVPTGMGYFLMDYWGQGTLVTVSSASTKGPSVFPLAPSSKSTSGGTAALGCLVKDYFPEPVTVSWNSGALTSGVHTFPAVLQSSGLYSLSSVVTVPSSSLGTQTYICNVNHKPSNTKVDKKVEPKSCDKTHTCPPCPAPEAAGGPSVFLFPPKPKDTLMISRTPEVTCVVVDVSHEDPEVKFNWYVDGVEVHNAKTKPREEQYNSTYRVVSVLTVLHQDWLNGKEYKCKVSNKALPAPIEKTISKAKGQPREPQVCTLPPSREEMTKNQVSLSCAVKGFYPSDIAVEWESNGQPENNYKTTPPVLDSDGSFFLVSKLTVDKSRWQQGNVFSCSVMHEALHNHYTQKSLSLSPGK
light: DIQLTQSPSFLSASVGDRVTITCKASQDVGSAVVWYQQKPGKAPKLLIYWASTRHTGVPSRFSGSGSGTEFTLTISSLQPEDFATYFCQQFTSYPTFGQGTKLEIKRTVAAPSVFIFPPSDEQLKSGTASVVCLLNNFYPREAKVQWKVDNALQSGNSQESVTEQDSKDSTYSLSSTLTLSKADYEKHKVYACEVTHQGLSSPVTKSFNRGEC
Consider B7, for which the concentration for a half-maximal effect (EC50 (read off the curve)) was around 2 µg/mL with CD3 on CD8 T cells [5], around 0.2 µg/mL in the assay with PDL1 protein [6] and around 1 µg/mL in assay [7].

B8: Cross317×PDL1 (bispecific antibody, human IgG1, kappa, L234A L235A)
scFv: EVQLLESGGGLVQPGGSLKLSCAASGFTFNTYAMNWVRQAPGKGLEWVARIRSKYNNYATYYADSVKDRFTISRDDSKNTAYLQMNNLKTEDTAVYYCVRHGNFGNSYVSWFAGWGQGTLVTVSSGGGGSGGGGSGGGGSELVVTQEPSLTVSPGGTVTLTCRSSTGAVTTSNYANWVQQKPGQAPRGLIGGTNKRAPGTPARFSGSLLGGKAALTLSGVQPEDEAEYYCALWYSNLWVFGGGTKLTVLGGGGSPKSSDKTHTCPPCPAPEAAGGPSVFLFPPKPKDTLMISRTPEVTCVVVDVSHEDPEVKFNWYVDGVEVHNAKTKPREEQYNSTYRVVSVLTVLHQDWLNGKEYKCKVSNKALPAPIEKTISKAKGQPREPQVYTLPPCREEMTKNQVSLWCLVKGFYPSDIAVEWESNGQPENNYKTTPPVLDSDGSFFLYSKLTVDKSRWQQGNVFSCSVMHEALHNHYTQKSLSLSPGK
heavy: B7 heavy
light: B7 light
In the case of B8, the half-maximal effective concentration (EC50 (read off the curve)) in the assay with PDL1 protein [8] was around 0.2 µg/mL; in assay [7] it was around 1 µg/mL.
